The results in this text go back to the nanobody polyreactivity screen of Harvey et al. (2022).

This data set is described as follows: yeast display, Sf9 membrane polyspecificity reagent, FACS + sequencing; frameworks hold sequencing errors. An outline of the steps: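 Using colony PCR, genes from sorted yeast display clones were amplified, then sequenced on MiSeq at 2 × 250 and filtered by CDR length. The clones had been stained with 10% biotinylated, detergent-solubilized Sf9 membrane reagent for 1 hour at 4 °C and sorted by FACS into low and high (top ~1%) gates on anti-HA and streptavidin fluorescence. Polyreactivity labels come from the gate of origin.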
For “QVQLVESGGGLVQAGGSLRLSCAASVIIFTRYAMGWYRQATGKERELVAGITRRGGSTYYADSVKGRFTISRDNAKNTVYLQMKSLKPEDTAVYYCNTYQRDYPYGVEDDSWGQGTEVTVSS”, the “polyreactivity (PSR sort gate)” value is given as “high polyreactivity”. For the sequence “QVQLVESGGGLVQAGGSLRLSCAASGFTFRYYSMGWYRQAPGKERELVAAISSGGSTKYADSVKGRFTISRDNAKNTVYLQMNSLKPEDTAVYYCAARVVDGAQPRYVVIINTRYYWGQGTQVTVSS”, the “polyreactivity (PSR sort gate)” value was “high polyreactivity”. Regarding “QVQLVESGGGLVQAGGSLRLSCAASGRIFYHYAMGWYRQPPGKESELVAAITWSGDSTYYADSVKGRFTISRDNAQNTVYLQMNSLKPEDTAVSYCATSSPYGVRRYSRGSWGQGTQVTVSS”, the “polyreactivity (PSR sort gate)” value is reported as “high polyreactivity”. Take “QVQLVESGGGLVQAGGSPRLSCAASGRIFHPYAMGWYRQAPGKERELVATISWSGGSTTYADSVKGRFTISRDNAKNTVYLQMNSLKPEDTAVYYCNADYWWSYVRFDYWGQGTQVTVSS”: the “polyreactivity (PSR sort gate)” value was “low polyreactivity”.

“QVQLVESGGGLVQAGGSLRLSCAASGIIFVYYAMGWYRQAPGKERELVAAINWSGGSTYYADSVKGRFTISRDNAKNTVYLQMNSLKPEDTAVYYCAASSYITSDQRFYYWGQGTQVTVSS”: the “polyreactivity (PSR sort gate)” value is “high polyreactivity”. As to “QVQLVESGGGLVQAGGSLRLSCAASGYTFRYYAMGGYRQAPGKERELVADINSGDITNYADSVKGRFTISRDNAKNTVYLQMNSQKPEDTAVYYCAPRTFSLYDYWGQGTQVTVSS”, the “polyreactivity (PSR sort gate)” value is reported as “low polyreactivity”. Take “QVQLEDSGGGLVQAGGSLRLSCAASGFIFRYYAMGWYRKATGKERELVAAIDYSGGSTNYADSVKGRFTISRDNAKNTVYLQMNSLKPEDTAVYYCKAVHETTWQLYDYWGQGTQVTVSS”: the “polyreactivity (PSR sort gate)” value was “low polyreactivity”.

With “QVQLVESGGGLVQAGGSLRLSCAASGSTFPYYAMGRYRPAPGKEMELVAAISQNGGSSYYADSVKGRFTISRDNAKNTVYLQINSLKPEDTAVYYCNADGVGGEYRLSGYDYWGQGTQVTVSS”, the “polyreactivity (PSR sort gate)” value is recorded as “low polyreactivity”. Turning to “QVQLVESGGGLVQAGGSLRLSCAASGSIFALYAMGWYRQAPGKERELVAAISNTGGSTYYADSVKGRFTISRDNAKNTVYLQMNSLKPEDTAVYYCAARKARSSPRYYYWGQGTQVTVSS”, the “polyreactivity (PSR sort gate)” value was “high polyreactivity”. Take “QVQLQERGGGQVQAGGSLRLSCAASGTIFLYAFMGWYRQAPGKERELVAAIDVGTTTNYADSVKGRFTISRDNAKNTVYLQMNSLKPEDTAVYYCAANLGYLDDLGYWGQGTQVTVSS”: the “polyreactivity (PSR sort gate)” value was “low polyreactivity”.

Turning to “QVQLVESGGGLVQAGGSLRLSCAASGSTFTTYDMGWYRQAPGKERELVAGITGSGTSTFYADSVKGRFTISRDNAKNTVYLQMKSLKPEDTAVYYCATDWYTPEEYVTGAIEEYYWGQGTLVTVSS”, the “polyreactivity (PSR sort gate)” value is given as “low polyreactivity”. The value for “QVQLVESGGGLVQAGGSLRLSCAASGNIFVEYAMGWYRQAPGKERELVAAITNSGGRTHYADSVKGRFTISRDNAKNTVYLQMNSLKPEDTAVYYCAAPTKYRSRRYYWGQGTQVTVSS” was “high polyreactivity”. On to “QVQLVESGAGLVQAGVSLRLSCAASGRTFPYYAMGWYRQAPGKERELVARITYSGGSTYADSVKGRFPISRDNAKNTVYLQMNSLKPEDTAVYFCAAQYYAYLLDGYHRYDYWGLGTQVTVSS”, for which the “polyreactivity (PSR sort gate)” value is “high polyreactivity”. “QVQLVESGGGLVQAGGSLRLSCAASGFTIPVYAMGWYRQAPGKEMELVADITESGDSTYYADSVKGRFTISRDNAKNTVYLQMNSLKPEDTAVYYCAADGGWFWSLFYTFAFDYCGQGTQVTVSS”: the “polyreactivity (PSR sort gate)” value was “low polyreactivity”. Take “QVQLVESGGGLVQAGGSLRLSCAASGRIFQWYAMGSYRQAPGKERELVATISDGDSTNYADSVKGRFTISRDNAKNTVFAQMNSLKTEDTEVYYCAALDSYYDSYYWYDYWGQGTQVTVSS”: the “polyreactivity (PSR sort gate)” value was “high polyreactivity”. The value for “QLQLVESGGGLVQAGASLRLSCAASGSILWPSARGWYRQAPGKERELVAAISTGGSTYYADSVKGRFTISRDNAKNTVYLQMNSLKPEDTAVYYCAAYVDYSVYFGGGYWGQGTQVTVSS” was “low polyreactivity”; that for “QVQLVESGGGLVQAGGSLRLSCAASGSIFESYAMGCYRQAPGKERELVAAITKRGGSTYYADSVKGRFTISRDNSKNTFYLQMNSLKPEDTAVYYCNARSPGIGPIYDYWGQGTQVTVSS” was “low polyreactivity”. In the case of “QVQLVESGGGLVQAGGSLRLSCAASGRIFGGYAMGWYRQAPGKERELVAVITDGGSTNYADSVKRRFTISRDNAKNTVYLQMNSLKPEDTAVYYCAADSDGDEPPYDYWGQGTQVTVSS”, the “polyreactivity (PSR sort gate)” value was “low polyreactivity”. As for “QVQLVESGGGLVQAGGSLRLSCAASGRTISRYAMGWYRQAPGKERELVATITSGGSTNYADSVKGRFTISRDNAKNTLYLQMNSLKPEDTAVYYCNAQSWYIVPYDYWGQGTQVTVSS”, the “polyreactivity (PSR sort gate)” value is “low polyreactivity”.

Regarding “QVQLVESGGGLVQAGGSLSLSCAASGSTFVIYAMGWYRQAPGKERELVASIRGRTGSTYNADSVKGRFTISRDNAKNTVYLQMNSLKPEDTAVYYCAAKPGYKSKMDYWGQGTQVSVSS”, the “polyreactivity (PSR sort gate)” value is reported as “high polyreactivity”.

Regarding “QVQLVESGGGLVQAGGSLRLSSAATGGIFYSNAMGWYRQAPGKERELVAAITRSGTSTYYADSVKGRFTISRDNAKNTVYLQMNSLKPEDTAVYYCAADYRYRRSRGHVSKLYYWGQGTQGTVSS”, the “polyreactivity (PSR sort gate)” value is listed as “low polyreactivity”.

For “QVQLVESGGGLVQAGGSLRLSCAPSGRTFGYNVMGWYRQAPGKERELVAAISYSGGSTYYADSVKGRFTISRDNAKNTVYLQMNSLKPEDTAVYYCAATVLSWYGDYPVYYWGQGTQVTVSS”, the “polyreactivity (PSR sort gate)” value is recorded as “low polyreactivity”. In the case of “QVQLVESGGGLVQAGGSLRLSCAASGITFTSYAMGWYRQAPGKERELVAAISSSGVRTYYADSVKGRFTISRDNAKNTVYLQMNSLKPEDTAVYYCATRRRVLNCYDYWGQGTQVTVSS”, the “polyreactivity (PSR sort gate)” value was “high polyreactivity”. Turning to “QVQLVESGGGLVQAGGSLRLSCAASGFIFTIYAMGWYRQAPRKERELVAAITWNGGRTYYADSVKGRFTISRDNAKNTVYLQMISLKPEDTAVYYCAARYGRAYDYWGQGTQVTVSS”, the “polyreactivity (PSR sort gate)” value is recorded as “high polyreactivity”. As to “QVQLVESGGGLVQAGGSLRLSCAASGFIFLYYAMGWNTQSPGKERELVADISRGADTKYADSVKGRFTISRDNAKNTVYLQMNSLKPEDTAVYYCATDITTFWFPYPGVELGYWGQGSQVTVSS”, the “polyreactivity (PSR sort gate)” value was “low polyreactivity”. With “QVQLVESGGGLVQAGGSLRLSCAASGGIFNRNAMGWYRQAPGKERELVAAISSGGGSTYYADSVKGRFTISRDNAKNTVYLQMNSLKPEDTAVYYCARDSYHLYIQPFGYWGQGTQVTVSS”, the “polyreactivity (PSR sort gate)” value is reported as “low polyreactivity”.

For “QVQLVESGGGLVQAGGSLRLSCAASGRIFGTNAMGWYRQAPGKERELVADITSGGSTNYADSVKGRFTISRDNAKNTVYLQMNSLTPEDTAVYYCAADVIGDLRWYRDEYWGQGTQVTVSS”, the “polyreactivity (PSR sort gate)” value is recorded as “low polyreactivity”. Turning to “QVQLVESGGGLVQAGGSLRLSCAASGSTFGKYAMGWSRPAPGKERELVAAITVNAGRTYYADSVKGRFTISRDNAKNTVYLQMNSLKPEDTAVYYCNADFFTIYDYWGQGTQVTVSS”, the “polyreactivity (PSR sort gate)” value is “high polyreactivity”.

“QVQLVESGGGLVQAGGSLRLSCAPSGIIFYVYAIGWYRQAPGMERELVADITYGDRTNYADSVNGRFTISRDNAKNTVYLQMNSLKPEDTAVYYCAAKRNVLLGYTDQSLYDYWGQGTQVTVSS”: the “polyreactivity (PSR sort gate)” value was “low polyreactivity”. On to “QVQLVESGGGLVQAGGSLRLSCAASGYTFGSYAMGWYRQAPGKERELVAAISGGGSTNYADSVKGRFTISRDNAKNTVYLQMNSLKPEDTAVYYCAAYPYLYPLRFEEYDHWGQGTQVTVSS”, for which the “polyreactivity (PSR sort gate)” value is “low polyreactivity”.
